# Results taken from patent US20150320880A1, “ANTIBODY DRUG CONJUGATES” (NOVARTIS AG, priority 2013, published 2015).
# Residue numbers refer to the chain shown, from its start.
# T1: Mouse cKIT ECD, C-terminal 6x His (Sino Biological Inc, catalog number 50530-M08H) (mouse, UniProt P05532 25-527)
# T1 construct: extracellular domain; Bought protein
# T1 sequence (looked up): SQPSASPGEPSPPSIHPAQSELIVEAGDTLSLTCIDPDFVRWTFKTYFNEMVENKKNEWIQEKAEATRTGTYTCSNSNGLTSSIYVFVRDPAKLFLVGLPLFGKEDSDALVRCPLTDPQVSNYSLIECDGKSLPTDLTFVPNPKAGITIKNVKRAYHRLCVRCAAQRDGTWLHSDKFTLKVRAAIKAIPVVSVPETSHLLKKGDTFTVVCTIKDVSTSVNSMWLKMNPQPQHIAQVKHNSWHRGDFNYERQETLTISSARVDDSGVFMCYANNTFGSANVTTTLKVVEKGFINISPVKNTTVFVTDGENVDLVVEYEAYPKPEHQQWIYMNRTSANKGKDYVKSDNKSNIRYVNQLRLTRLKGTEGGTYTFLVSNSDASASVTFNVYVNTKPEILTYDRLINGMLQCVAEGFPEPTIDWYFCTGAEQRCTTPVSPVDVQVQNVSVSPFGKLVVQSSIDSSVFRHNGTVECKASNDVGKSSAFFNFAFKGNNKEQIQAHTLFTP
# T2: Rat cKIT D1-5 (residues 25-526, C-terminal mFc) (rat)
# T2 construct: The entry includes the linker and mouse Fc tag; also called rat cKIT-mFc
# T2 chain: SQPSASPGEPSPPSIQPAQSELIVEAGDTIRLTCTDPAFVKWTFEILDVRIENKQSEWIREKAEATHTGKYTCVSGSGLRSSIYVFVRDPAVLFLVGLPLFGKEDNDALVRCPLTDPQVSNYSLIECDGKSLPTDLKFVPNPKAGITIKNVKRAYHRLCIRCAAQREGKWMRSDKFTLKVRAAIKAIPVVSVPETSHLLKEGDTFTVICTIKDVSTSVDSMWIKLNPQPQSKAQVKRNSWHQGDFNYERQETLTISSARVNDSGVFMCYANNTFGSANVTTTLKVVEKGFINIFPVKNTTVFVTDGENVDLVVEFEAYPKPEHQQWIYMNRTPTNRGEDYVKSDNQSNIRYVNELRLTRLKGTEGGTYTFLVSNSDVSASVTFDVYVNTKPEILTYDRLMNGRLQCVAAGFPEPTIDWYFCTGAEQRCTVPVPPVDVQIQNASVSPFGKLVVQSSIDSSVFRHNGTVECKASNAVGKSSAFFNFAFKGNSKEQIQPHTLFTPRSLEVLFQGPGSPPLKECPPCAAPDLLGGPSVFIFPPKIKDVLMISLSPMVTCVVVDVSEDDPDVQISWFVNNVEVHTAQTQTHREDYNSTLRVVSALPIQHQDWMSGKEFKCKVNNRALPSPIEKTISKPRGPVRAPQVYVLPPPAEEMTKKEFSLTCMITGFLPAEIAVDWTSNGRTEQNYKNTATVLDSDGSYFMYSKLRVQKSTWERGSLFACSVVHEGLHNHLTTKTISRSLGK
# T3: Cynomolgus monkey cKIT D1-5 (residues 25-520, C-terminal His tag) (cynomolgus monkey, UniProt P10721 25-520 (human entry))
# T3 construct: the signal peptide was not part of the protein in the assay; also called cyno cKIT; cynomolgus monkey ECD
# T3 chain: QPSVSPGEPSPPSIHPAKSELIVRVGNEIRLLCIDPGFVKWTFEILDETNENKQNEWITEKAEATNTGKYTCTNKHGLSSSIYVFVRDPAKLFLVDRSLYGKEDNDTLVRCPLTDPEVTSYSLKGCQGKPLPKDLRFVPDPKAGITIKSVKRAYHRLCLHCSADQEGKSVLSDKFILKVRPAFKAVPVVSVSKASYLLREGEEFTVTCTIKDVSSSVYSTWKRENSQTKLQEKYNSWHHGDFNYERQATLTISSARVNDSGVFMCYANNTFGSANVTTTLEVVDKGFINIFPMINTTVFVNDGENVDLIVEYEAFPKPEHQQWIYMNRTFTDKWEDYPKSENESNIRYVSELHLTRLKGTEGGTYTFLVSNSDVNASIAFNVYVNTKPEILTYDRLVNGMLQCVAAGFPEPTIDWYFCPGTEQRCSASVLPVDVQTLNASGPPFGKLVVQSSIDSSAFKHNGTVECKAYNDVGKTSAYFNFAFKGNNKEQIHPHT
# B1: anti-cKIT antibody 9P3 (antibody, V domains shown)
# VH: EVRLVESEGGLVQPRSSMKLSCTASGFTFSDYYMAWVRQVPEKGLEWVANINYDGSSTYYLDSLKSRFIISRDNAKNILYLQMSSLKSEDTATYYCARGDYYGTTYWYFDVWGTGTTVTVSS
# VL: DIQMTQTTSSLSASLGDRVTISCRASQDISNYLNWYQQKPDGTVKLLIYYTSRLQSGVPSRFSGSGSGTDYSLTISNLEQEDIATYFCQQGKKLWSFGGGTKLEIKR
# notes: Hybridoma-derived mouse variable domains; also called murine 9P3
# B2: NEG026 (antibody, human IgG1, kappa, V domains shown)
# VH: EVQLVESGGGLVQPGGSLRLSCAASGFTFSDYYMAWVRQAPGKGLEWVANINQNTGSTYYVDSVQGRFTISRDNAKNSLYLQMNSLRAEDTAVYYCARGDYYGTTYWYFDVWGQGTTVTVSS
# VL: EIVMTQSPATLSLSPGERATLSCRASQDISNYLNWYQQKPGQAPRLLIYYTSRLQSGIPARFSGSGSGTDYTLTISSLEPEDFAVYYCQQGKKLWSFGGGTKVEIKR
# notes: Humanized, optimized variant of 9P3; human IgG1 kappa
# B3: NEG086-MCC-DM1 (antibody, human IgG1, kappa, V domains shown)
# VH: B2 VH with N54I, T55A
# VL: DIQMTQSPSSLSASVGDRVTITCRASQSISSYLNWYQQKPGKAPKLLIYYTSRLQSGVPSRFSGSGSGTDFTLTISSLQPEDFATYYCQQGRRLWSFGGGTKVEIKR
# modifications: DM1 linked through the MCC (SMCC) linker to primary amines of the antibody, sites not stated; DM1 linked through the MCC (SMCC) linker to primary amines of the antibody, sites not stated; average MAR 3.5 (Table 7)
# notes: Antibody drug conjugate of NEG086
# B4: 20376 (antibody, human IgG1, lambda, V domains shown)
# VH: QVQLVQSGAEVKKPGSSVKVSCKASGGTFSSYAISWVRQAPGQGLEWMGGIIPMSGRTTYAQKFQGRVTITADESTSTAYMELSSLRSEDTAVYYCARDYGPEAPDYGQSTSYFWYYAFDPWGQGTLVTVSS
# VL: DIELTQPPSVSVSPGQTASITCSGDNIPSYFVHWYQQKPGQAPVLVIYDDNDRPSGIPERFSGSNSGNTATLTISGTQAEDEADYYCSSWDQDTVVFGGGTKLTVLG
# notes: human IgG1 lambda
# Experiments:
# Uke-1 cells = assay: ADCC activity in vitro (Calcein release, NK3.3 effector cells); type: cell-based; settings: effector to target ratio 20 to 1
# Protocol: In brief, Uke-1 cells were stained with Calcein acetoxy-methyl ester (Calcein-AM; Sigma-Aldrich catalog #17783-5MG, St. Louis, Mo.), washed twice, pipetted into a 96-well microtiterplate (96 well, U-bottomed, clear plastic; Corning Costar, catalog #650 160, Tewksbury, Mass.) at a concentration of 5000 cells per well and pre-incubated for 10 min with a serial dilution of the above mentioned antibodies and proteins (from 50,000 to 0.003 μg per ml) before adding the effector NK3.3 cells for 1 hour in an effector to target ratio of 20 to 1. In order to calculate the antibody specific lysis of the target cells, a parallel incubation of target cells only without antibody or effector cells served as a baseline and negative control, whereas the positive control or maximal lysis or hundred percent specific lysis was determined by lysis of target cells only with a 1% Triton-X 100 solution. […] Following a co-incubation of target and effector cells, the microtiterplate was centrifuged and an aliquot of the supernatant fluid was transferred to another microtiterplate (96 well, flat-bottomed, black with clear bottom; (Corning Costar, catalog #3904, Tewksbury, Mass.) and the concentration of free Calcein in solution was determined with a fluorescence counter (Victor 3 ® multilabel counter, Perkin Elmer, Waltham, Mass.).
# [1] = target: T1, Mouse cKIT ECD, C-terminal 6x His (Sino …); assay: SPR (Biacore 2000), antibody captured on anti-human Fc
# [2] = target: T2, Rat cKIT D1-5 (residues 25-526, …); assay: as above
# [3] = target: T4, Human cKIT D1-5 (human cKIT tr. variant 2, residues 26-520, C-terminal His tag) (human, UniProt P10721 26-524); assay: SPR (Biacore 2000), antibody captured on anti-human Fc, cKIT ECD as analyte, 25 C, 1:1 fit
# T4 construct: also called human cKIT ECD; Human c-Kit ECD
# human cKIT ECD = target: T5, human cKIT ECD (Homo sapiens, UniProt P10721); assay: SPR (Biacore 2000) affinity measurement; type: binding; settings: 25° C.
# T5 construct: Human cKIT tr. variant 2, residues 26-520-TAG; made in house; host or cells: HEK293 derived cell lines (293FS), transient transfection
# Protocol: (§1) Affinity of the antibodies to cKIT species orthologues and also to cKIT was determined using SPR technology using a Biacore® 2000 instrument (GE Healthcare, Pittsburgh, Pa.) and with CM5 sensor chips.
# (§2) Briefly, HBS-P (0.01 M HEPES, pH 7.4, 0.15 M NaCl, 0.005% Surfactant P20) supplemented with 2% Odyssey® blocking buffer (Li-Cor Biosciences, Lincoln, Nebr.) was used as the running buffer for all the experiments. The immobilization level and analyte interactions were measured by response unit (RU). Pilot experiments were performed to test and confirm the feasibility of the immobilization of the anti-human Fc antibody (Catalog number BR100839, GE Healthcare, Pittsburgh, Pa.) and the capture of the test antibodies.
# (§3) For kinetic measurements, the experiments were performed in which the antibodies were captured to the sensor chip surface via the immobilized anti-human Fc antibody and the ability of the cKIT proteins to bind in free solution was determined Briefly, 25 μg/ml of anti-human Fc antibody at pH 5 was immobilized on a CM5 sensor chip through amine coupling at flow rate of 5 μl/minute on all two flow cells to reach 10,500 RUs. 0.1-1 μg/ml of test antibodies were then injected at 10 μl/min for 1 minute. Captured levels of the antibodies were generally kept below 200 RUs. Subsequently, 3.125-50 nM of cKIT receptor extracellular domains (ECD) were diluted in a 2-fold series and injected at a flow rate of 40 μl/min for 3 min over both reference and test flow cells. Table of tested ECDs is listed below. Dissociation of the binding was followed for 10 min. After each injection cycle, the chip surface was regenerated with 3 M MgCl2 at 10 μl/min for 30 s.
# mouse cKIT ECD = assay: SPR (Biacore 2000) affinity measurement; type: binding; settings: 25° C.
# Protocol: as §1, §2, §3
# [4] = system: GIST T1 subcutaneous tumor xenograft; settings: Example 28, single i.v. dose: 9P3 10 mg/kg, IgG1-MCC-DM1 5 mg/kg, IgG1-SPDB-DM4 10 mg/kg, 9P3-MCC-DM1 5 and 10 mg/kg, 9P3-SPDB-DM4 2.5 and 5 mg/kg
# Protocol: The anti-tumor activity of anti-cKIT ADCs was evaluated in several tumor xenograft models.
# SCF binding to cKIT = SCF binding to cKIT (Homo sapiens, UniProt P10721); assay: Competition assays (ELISA and FACS) of SCF binding to cKIT
# [5] = target: T6, Human cKIT D1-3 (human cKIT tr. variant 1, residues 26-311, tagged) (human, UniProt P10721 26-311); assay: ELISA on coated cKIT subdomain constructs (Example 6)
# T6 construct: also called cKIT subdomains 1-3
# [6] = target: T4, Human cKIT D1-5 (human cKIT tr. variant …); assay: SPR (Biacore T100), CM5 chip, method as in Example 7; MCC-DM1 conjugate
# [7] = target: T4, Human cKIT D1-5 (human cKIT tr. variant …); assay: SPR (Biacore T100), CM5 chip, method as in Example 7; unconjugated antibody
# [8] = target: T1, Mouse cKIT ECD, C-terminal 6x His (Sino …); assay: SPR (Biacore 2000), antibody captured on anti-human Fc, cKIT ECD as analyte, 25 C, 1:1 fit
# [9] = target: T3, Cynomolgus monkey cKIT D1-5 (residues …); assay: as above
# T4 sequence (P10721 other isoform, or with tags, fused parts or gaps mutant limits assumed): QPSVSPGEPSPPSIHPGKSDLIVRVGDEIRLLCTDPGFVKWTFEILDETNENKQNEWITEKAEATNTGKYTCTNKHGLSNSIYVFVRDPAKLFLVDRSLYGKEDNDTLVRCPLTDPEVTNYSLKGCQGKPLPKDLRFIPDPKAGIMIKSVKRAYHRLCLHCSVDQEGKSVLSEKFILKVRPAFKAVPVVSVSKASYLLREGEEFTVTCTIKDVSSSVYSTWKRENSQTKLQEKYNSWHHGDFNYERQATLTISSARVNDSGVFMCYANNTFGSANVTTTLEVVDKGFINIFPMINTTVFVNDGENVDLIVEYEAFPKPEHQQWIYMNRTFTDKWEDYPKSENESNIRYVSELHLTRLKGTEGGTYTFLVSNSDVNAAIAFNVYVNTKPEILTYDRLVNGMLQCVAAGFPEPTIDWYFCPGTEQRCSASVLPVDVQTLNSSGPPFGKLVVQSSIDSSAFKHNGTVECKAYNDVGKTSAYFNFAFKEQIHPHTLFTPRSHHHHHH
# Chain of SCF binding to cKIT (P10721 26-524 limits assumed): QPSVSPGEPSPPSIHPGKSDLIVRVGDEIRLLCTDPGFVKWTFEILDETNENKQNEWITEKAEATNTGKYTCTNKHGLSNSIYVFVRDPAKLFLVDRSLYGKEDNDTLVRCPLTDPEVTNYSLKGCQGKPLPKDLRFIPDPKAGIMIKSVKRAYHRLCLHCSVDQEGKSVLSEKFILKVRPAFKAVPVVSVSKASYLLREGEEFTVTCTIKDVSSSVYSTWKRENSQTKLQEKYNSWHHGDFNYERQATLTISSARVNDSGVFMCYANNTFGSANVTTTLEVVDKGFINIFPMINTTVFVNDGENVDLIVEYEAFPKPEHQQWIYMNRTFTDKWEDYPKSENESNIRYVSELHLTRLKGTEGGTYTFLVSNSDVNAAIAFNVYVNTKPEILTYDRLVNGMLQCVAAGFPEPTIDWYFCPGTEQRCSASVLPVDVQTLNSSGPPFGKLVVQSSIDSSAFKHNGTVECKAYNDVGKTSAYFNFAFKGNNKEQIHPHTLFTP
# T6 sequence (P10721 other isoform, or with tags, fused parts or gaps mutant limits assumed): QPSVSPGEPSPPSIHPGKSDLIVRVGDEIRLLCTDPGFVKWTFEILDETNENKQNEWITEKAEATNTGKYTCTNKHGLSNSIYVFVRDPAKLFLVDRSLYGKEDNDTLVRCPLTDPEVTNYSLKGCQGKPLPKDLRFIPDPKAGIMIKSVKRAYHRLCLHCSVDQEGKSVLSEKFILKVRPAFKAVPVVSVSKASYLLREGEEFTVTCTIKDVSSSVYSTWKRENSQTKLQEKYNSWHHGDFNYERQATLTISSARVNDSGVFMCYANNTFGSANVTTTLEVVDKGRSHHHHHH
molecule,measurement,setting,value
MabCampath [reference compound],ADCC killing of target cells,Uke-1 cells,mediated ADCC killing of the target cells
B1,binding result,[1],no binding (tested: 3.125-50 nM of cKIT ECD injected)
same,binding result,[2],no binding (tested: 3.125-50 nM of cKIT ECD injected)
same,Kd,[3],20 nM
same,Affinity human cKIT (nM),human cKIT ECD,nanomolar level
same,Affinity mouse cKIT (nM),mouse cKIT ECD,Not reactive
same,anti-tumor activity (tumor volume),[4],Neither the control non-specific IgG1 ADCs nor the unconjugated 9P3 were efficacious
same,blocking of SCF binding to cKIT,SCF binding to cKIT,partial blocking of SCF binding to cKIT
B2,binding result,[5],binds
same,binding result,[1],no binding (tested: 3.125-50 nM of cKIT ECD injected)
same,binding result,[2],no binding (tested: 3.125-50 nM of cKIT ECD injected)
B3,Kd,[6],1.8 nM
B4,Kd,[7],9.1 nM
same,binding result,[2],no binding (tested: 3.125-50 nM of cKIT ECD injected)
same,Kd,[3],9.1 nM
same,Kd,[8],2.5 nM
same,Kd,[9],4.8 nM
